The text below walks through data of publication PMC8854993, “Acetylation at Lysine 86 of Escherichia coli HUβ Modulates the DNA-Binding Capability of the Protein” (Frontiers in Microbiology, 2021).

The target of series [1] is HUβ(K86ac) K86ac (Escherichia coli BL21(DE3)) (UniProt P0ACF4). The experiment in a line: EMSA. To be noted: 4 µM HU dimer, 1 µM DNA; versus HUβ2; p < 0.05; 2-nt gap in bottom strand; 30 mM Tris pH 7.5, 100 mM NaCl, 0.02% Tween20, 0.5 mg/ml BSA; 30-bp DNA 1 µM, 18°C 10 min, 10% PAGE in TBE; long DNA 250 ng in 15 µL, 37°C 1 h, 0.5% agarose in ….
For the next series, the target named is HUα;HUβ (Escherichia coli BL21(DE3);Escherichia …, UniProt P0ACF0;P0ACF4 1-90;1-90, |). The experiment in a line: EMSA; heterodimer; higher affinity than homodimer; 30 mM Tris pH 7.5, 100 mM NaCl, 0.02% Tween20, 0.5 mg/ml BSA; 30-bp DNA 1 µM, 18°C 10 min, 10% PAGE in TBE; long DNA 250 ng in 15 µL, 37°C 1 h, 0.5% agarose in. To be noted: protein: recombinant;recombinant; tags: C-terminal 6xHis;C-terminal 6xHis; copies: 1;1; three strands; 2-nt gap in bottom strand between S16 and S17; blunt outer ends. (In EMSA bound probe runs differently from free probe, usually more slowly.)
Sequence of HUα;HUβ (P0ACF0 whole entry, chain 1 of 2): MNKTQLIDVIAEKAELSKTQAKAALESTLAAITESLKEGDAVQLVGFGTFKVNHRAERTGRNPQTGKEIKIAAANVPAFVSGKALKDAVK
Sequence of HUα;HUβ (P0ACF4 whole entry, chain 2 of 2): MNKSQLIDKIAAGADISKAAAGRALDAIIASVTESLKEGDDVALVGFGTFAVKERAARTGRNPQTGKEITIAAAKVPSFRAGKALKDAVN

Sequence of HUβ(K86ac) K86ac (Escherichia coli BL21(DE3)) (P0ACF4 whole entry): as the sequence (P0ACF4 whole entry, chain 2 of 2) above

Take “CCAACTTCCCTAACCCAGCTGCGATCCGTA / TACGGATCGCAGC / GGTTAGGGAAGTTGG [30-bp duplex with 2-nt gap]”: in series [1], the binding signal (fold free DNA) was more than 4.

B1: 30-bp duplex with 2-nt gap (dsDNA)
DNA 1: CCAACTTCCCTAACCCAGCTGCGATCCGTA
DNA 2: TACGGATCGCAGC
DNA 3: GGTTAGGGAAGTTGG
modifications: 2-nt gap in bottom strand
Consider B1, for which, in the series with HUα;HUβ, the binding result was “binds”.
